Earlier results on 1 substance are cited in article PMC4103764.

In general, Kd refers to the constant that tells how readily two partners part at equilibrium.

The data set has as its target SARS 3C-like protease (SARS coronavirus) (UniProt P0C6X7). The data set is described as follows: ITC. In general terms: ITC needs no label: the signal is the heat of the interaction.

As to “SARS 3C-like protease (from UniProt P0C6X7)”, the Kd is 21.4 µM.
